Measurements published in the DeepSol protein solubility set.

Assay: soluble on expression in E. coli; label from the status in PepcDB or PDB records

Sequence	soluble on expression in E. coli
MIEAVKPKVLATRLIPNVAPELAGQLGLAQYQRSIGMITCNIDDSTYVALDEATKKADVAVVYAKSFYAGAAHASGPRSGEVIGILAAANPADVRAGIDACIAYLENEAFFYSHDGGKTAWFPHTISSTGSYLSQIAGIPEGEPLAYLIAPPLEAIYGIDAALKAADVAMKVLYGPPTETNFGGALLTGTQSACRAACEDFQRAVIDVAENGMKY	not soluble
MIVALGADLVEIARVERLLSRHGERALRRLFHEEEVAYALARQNPFPSLAARLAAKEAFQKCWPESLSWKEVWVGMEGKRPALRFAPRIEARMAEEGLFAHLSLSHERSHALAVVVLEARARGGG	soluble
MGSSHHHHHHSSGLVPRGSAVPLCKQALEDLEKTSGHDHPDVATMLNILALVYRDQNKYKEAAHLLNDALAIREKTLGKDHPAVAATLNNLAVLYGKRGKYKEAEPLCKRALEIREKVLGKFHPDVAKQLSNLALLCQNQGKAEEVEYYYRRALEIYATRLGPDDPNVAKTKNNLASCYLKQGKYQDAETLYKEILTRAHEKEFGSVNGDNKPIWMHAEEREESKDKRRDSAPYGEYGSWYKACKVDSPTVNTTLRSLGALYRRQGKLEAAHTLEDCASRNRK	soluble
GPGSMLSERACLHPGRALKCERFLAIFPQNVKEMLLQNPLFVQNSRVAERSIIRHNQFLLACYMTYLILRNDENAEGQALKYINFMPRNEGNFEQLISNMNGVLDGAAACQSAQAALSLQFGITQAEVRPLLQWSMAMIFSRMAPIDHRWTLQCAFKNTPFAPAFDIRGPDDDANMVKEPIAFLCPVIDMCNHSDHENVALMVPQRTDSSHESVICLRSLRDIDRGEELTMTYGGSPTELRVIWGMQRVL	not soluble
MAGDPMAEAGNKTQNQSATEVNASPLQPAEYFIYHNLMNDKGLIKTDFSDQPSYLSESLGLWMEFLLSKNDAPHFQDQYQHLTDSFLMSNHLVTWKIQNGQASGTNALIDDMRIMLSLDQAAAKWGRSDYAQTARDIGTSLKTYNMNNGFFTDFYDSQAASKDVTLSYVMPDALAVLKKNGIIDEETEQRNANVLYSAPLKNGFLPKTYSSETKEYTYDSEINLIDQLYAAWHLPEGDEKASVLADWIKQEFQKNGKLYGRYSAYTKEPAVQYESPSVYALAVLFLTKQHENSSVIKAIYDRMNDFEIHDPVKSYYGGYMSGTQTHSFDNLLPLLAERKLFNENIIQLEHHHHHH	soluble
MNRIAKLLKTKYPIVQGPMAGITLGEFASTVSEAGGLGVIASAGLSPEKLKEEIEKVKNRTDKPFAVNIPIYQPGSEKNLETALKADVGIIYTSAGSPEKYTERVKESGAKVIHKVSRLKEGLKAEKAGVDAVVAMGFEAGGIIGRSGVTSFCLIPELADNLSIPVVAAGGIADERGFAAALILGAEGVEIGTRLLATKECPVPESIKQAILKATCDSTMVIESPVVMRALKPELSGDSENPALGGQVSGLIKEILTVEEVIRKIAEGLNKAKF	not soluble
MGSDKIHHHHHHMALRLRKENDLWVQTFKAAGQSHLHRVEEEVFLGKCDQEPDLNLELYKDNKAVTDLITQALGSEVEKLSLQFETDVQRTYHVFEADDTAIEVCLDDGAVKTATAQSKICEVEFELKQGAVKTLIQFAQQWINRYELWLDVRSKAERGNLLALGQAASPAVHAKNLNLDKNISAEQALKKIVENCLGQFLPNMAAIADGVAEAEHIHQARVSLRRLRSALKHFSAWSDELNPVWEEQIAELFRQLGDTRDEDAIRTEILPMIVQHGSPELLLPISEQPLKDLATLFKSADTIKLILALLAFAYSEEDNQNGKGKLKKQIGKSLDKLHHQVVSNADHFTELEVTEQHRTRKKAKQLRYCIEFISSLYPRKNIQQFLKQLQPVQNTLGLYNDLFIAEDLFNKAIEHDPHFWFALGWVKAKQPYLQNQSAEALQKFKQAKTFW	not soluble
MNELTGADFKSATADDNKKLFIETYGCQMNVADSEVIASVMQMAGYSVAETLEEADAVFMNTCSIRDNAEQKILNRLEFFHSMKKKKKHLIVGVLGCMAERVKDDLIEHHHVDLVVGPDAYLTLPELIASVEAGEKAMNVELSTTETYRDVIPSRICGNHISGFVSIMRGCNNFCTYCIVPYTRGRERSRDVESILNEVADLVSKGYKEITLLGQNVNSYRFEKEGGEVVTFPMLLRLVAEAAPGIRVRFTTSHPKDMSDETLEVIAQVPNVCKHIHLPVQSGSSRILKLMNRKYTREWYLDRVAAIKRIVPDCGLTTDIFSGFHSETEEDHRESLSLMEACGYDAAFMFKYSERPGTYASKHLEDNVPEEIKVRRLNEIIALQNRLSAESNNRCIGKTYEVLVEGVSKRSRDQLFGRTEQNRVVVFDRGTHRIGDFVNVRITEASSATLKGEEVFSLEHHHHHH	not soluble
KKAITCGEKEKQDLIKSLAMLKDGFRTDRGSHSDLWSSSSSLESSSFPLPKQYLDVSSQTDISGSFGINSNNQLAEKVRLRLRYEEAKRRIANLKIQLAKLDSEAWPGVLDSERDRLILINEKEELLKEMRFISPRKWTQGEVEQLEMARKRLEKDLQAARDTQSKALTERLKLNSKRNQLVRELEEATRQVATLHSQLKSLSSSMQSLSSGSSPGSLTSSRGSLVASSLDSSTSASFTDLYYDPFEQLDSELQSKVEFLLLEGATGFRPSGCITTIHEDEVAKTQKAEGGGRLQALRSLSGTPKSMTSLSPRSSLSSPSPPCSPLMADPLLAGDAFLNSLEFEDPELSATLCELSLGNSAQERYRLEEPGTEGKQLGQAVNTAQGCGLKVACVSAAVSDESVAGDSGVYEASVQRLGASEAAAFDSDESEAVGATRIQIALKYDEKNKQFAILIIQLSNLSALLQQQDQKVNIRVAVLPCSESTTCLFRTRPLDASDTLVFNEVFWVSMSYPALHQKTLRVDVCTTDRSHLEECLGGAQISLAEVCRSGERSTRWYNLLSYKYLKKQSRELKPVGVMAPASGPASTDAVSALLEQTAVELEKRQEGRSSTQTLEDSWRYEETSENEAVAEEEEEEVEEEEGEEDVFTEKASPDMDGYPALKVDKETNTETPAPSPTVVRPKDRRVGTPSQGPFLRGSTIIRSKTFSPGPQSQYVCRLNRSDSDSSTLSKKPPFVRNSLERRSVRMKRPSSVKSLRSERLIRTSLDLELDLQATRTWHSQLTQEISVLKELKEQLEQAKSHGEKELPQWLREDERFRLLLRMLEKRMDRAEHKGELQTDKMMRAAAKDVHRLRGQSCKEPPEVQSFREKMAFFTRPRMNIPALSADDV	soluble
MGNASENFDIEDLMSYGDDLINLLNVKNGFDIISQSSEQFKALNFACHEDFNQIQGSIEDCKTKLYACKKKTEEAYSDIAAEDEIERLQKELDEEMEREFKLKDELR	soluble
MFQMRLNLVIELRDAPGQLVSVLEPLGSTGVNIVTVIHERDREYGPVVPVQLTVEGDRETLDAAIGRLQEQGVNIIEMDGAPLREKFTTILIGDIAEGDLQETVEAVNSVQGASVLDLSLRMSEGRSAARITFEAEHGSRDEVLRRINEAAMERNLLLVSEV	not soluble
MSLRIAIIITQKTNDLHATVPCFLWRKARYAVDLISAEAKASIMLEMGIHVRCDNTLSKTNFNQYTAAFIPHGNTTRLVEIDKLRKDLEKFVYKPKGPMRWLFSSGNGACVLKEFDLIAPDQLVTVQNEKEMVKLLGKNFIKQPVHVDKNIISCANSCGLTKFSFKVIEELSGIELARKTANLVDHIYKGEGHHHHHH	soluble
RLSQRLIEPVSALKVQLDQHQGDTSQKFIVPEGSAKEFQTLASQLNEYRSQINQVIKREQAFARYASHELRTPLTVMKGSSSLLARSPSTPFQERQIGRIQDATQQMSTMVDALLGLVRYERNTDDSPVRTISEQELHNIVALSQAQADEKSLEFNVQILGHPQTKATTAVLNITLSNLIRNGIAATSAGTIHITMTDTTLSVKDEGEGFSSVPDAEGHGLGLMIVDDLCRRYGWQFTIDTHSEGGCEAVIDLSSEHHEACSEQLPQH	not soluble
MGSDKIHHHHHHMDQEKTPLLDALKGYVEENVIPFHVPGHKQGRGNPELRKYIGSKVLKMDVNGMKELDYIGNPSGVIAEAQHLCAEAFGAEQAYFLVNGTSSGVQAMIMSACNPGNEIIIPRNAHKSTIGAIILSGAIPVYVQPQVNKVLGIATGVSAESIQKAIEEHPQAKAVFIINPSYYGIHSDLKSIVEISHQANMTVLADEAHGAHLYFHPEFSLNAIEAGADMSAVSLHKTGGAMTQSSVLLHQGDRISVDRVKQVLQLSYTSSASYILMLSIDVARKQLATRGQLLLNKTLALARQARQELNDIEDIYAFGKELIGSPGCADFDETKLGIHVRKLGLTGYQIERILRERYKIQIEFSDIYNALAIVSLGDRRENLRKLVAAFREIADERETKDASKWFNIPFCPEMIVTPRDAFYSPKRIVPLELSSGEISGEMIMAYPPGIPVICMGERITQEIIEYIQLLQVEGCELQGATDAGINHIKVLGSALPQASVSKSVSPSRSAYQEIPVYLSP	not soluble
MTRKFLNILKERTGVESITREQVRGIRRLVKKAREWDERKAQRYAKSAGKISDEEYSRLWSIDSYVISDSDKEKLKNLDQKTVFNNIMWLSRNAEKIDSNMKKFLGMHVWVVNYWIKTVGSATVRKFLRENNYSGEFVYFLYRYFNL	not soluble
GPGSMSAIPPPHYVRLRRYNLSIFVHCDVHNDTVQAIKERYGKLTGHIFYNARLYLGQQSLDDFLTLYGCGIEAEGAELVVVHSKGAKGDGTSEHIWETVEEAMAAPQGDSLNSPEVTAEGTAKLDSMEAAATSNEVGNQQQQQAADARGGTGAELNVGFVGV	soluble
IVGGQECKDGECPWQALLINEENEGFCGGTILSEFYILTAAHCLYQAKRFKVRVGDRNTEQEEGGEAVHEVEVVIKHNRFTKETYDFDIAVLRLKTPITFRMNVAPACLPERDWAESTLMTQKTGIVSGFGRTHEKGRQSTRLKMLEVPYVDRNSCKLSSSFIITQNMFCAGYDTKQEDACQGDSGGPHVTRFKDTYFVTGIVSWGEGCARKGKYGIYTKVTAFLKWIDRSMKTRGLPKAKSHAPEVITSSPLK	soluble
MGSSHHHHHHSSGLVPRGSHMSSEFIEAGAADRVRILSEALPYLQQFAGRTVVVKYGGAAMKQEELKEAVMRDIVFLACVGMRPVVVHGGGPEINAWLGRVGIEPQFHNGLRVTDADTMEVVEMVLVGRVNKDIVSRINTTGGRAVGFCGTDGRLVLARPHDQEGIGFVGEVNSVNSEVIEPLLERGYIPVISSVAADENGQSFNINADTVAGEIAAALNAEKLILLTDTRGILEDPKRPESLIPRLNIPQSRELIAQGIVGGGMIPKVDCCIRSLAQGVRAAHIIDGRIPHALLLEIFTDAGIGTMIVGSGYHEAHQPWQ	soluble
MSLEVYYPGSVVFPADATLEQKVEMAAKVVPTLQQLAWQQMELTAFLHFGINTFTDSEWGDGKEDPALFNPVELDARQWVRILHEAGFRMVILTAKHHDGFCLWPTATTRHSVASSPWREGKGDVVKEVRAACEEYGMKFGIYLSPWDRNAECYGDSHRYNRFFVSQLTELLTHYGEVHEVWFDGANGEGPNGKRQEYDWETFYDTIRRLQPQAVMAIMGDDVRWVGNERGLGRTTEWSATVLTPGIYSRSKTERNRLGIRENSPDLGSREVLKEAGEIFWYPSEVDVSIRPGWFYHAAEDKKVKSLDKLVDIYFQSVGYNSVLLLNVPPDRRGLIHEADALRLKEWADYLGRAFAHDRVVDSARYAVVQGHAVEEYALESKTHINILMLQEDITKGQRTEAFTVEAWVDGAWQEIGRGTTIGYKRLLRIPAVETDRIRVRIEQEGHHHHHH	not soluble
